Publication PMC5748111

B1: VimentinS83 peptide (peptide)
peptide: PGVRLLQDSVDFSLA
B2: Syntide peptide (peptide)
peptide: PLARTLSVAGLPGKK
B3: GluN2B_(S1303) peptide (peptide)
peptide: RNKLRRQHSYDTFVD
B4: GluA1_(S849) peptide (peptide)
peptide: GFCLIPQQSINEAIR

Target: CaMKII (human CaMKIIδ, form used for the solution kinetics not stated) (human) (UniProt Q13557)
Chain of UniProt Q13557 (Q13557 1-478, stated change not applied): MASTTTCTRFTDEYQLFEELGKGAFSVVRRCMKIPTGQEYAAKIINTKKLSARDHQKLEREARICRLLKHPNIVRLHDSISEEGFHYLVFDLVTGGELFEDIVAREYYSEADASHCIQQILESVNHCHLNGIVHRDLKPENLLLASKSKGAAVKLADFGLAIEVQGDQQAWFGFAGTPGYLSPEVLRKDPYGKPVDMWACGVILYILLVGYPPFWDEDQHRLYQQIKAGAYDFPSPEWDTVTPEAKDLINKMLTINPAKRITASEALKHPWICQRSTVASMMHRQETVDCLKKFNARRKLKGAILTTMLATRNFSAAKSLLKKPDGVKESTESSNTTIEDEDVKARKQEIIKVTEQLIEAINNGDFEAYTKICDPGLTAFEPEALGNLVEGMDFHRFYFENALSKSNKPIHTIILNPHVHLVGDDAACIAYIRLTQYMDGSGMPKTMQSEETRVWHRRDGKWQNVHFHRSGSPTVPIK

Row | Km of peptide phosphorylation, standard solution kinetics [µM] | Binder
1 | > 1000 | B1
2 | 43.5 | B2
3 | 4.6 | B3
4 | > 1000 | B4
